Laboratory results published in patent US20110162109A1 (BASF PLANT SCIENCE, published 2011).

B2: HUB1 (Histone Monoubiquitination 1), At2g44950, Arabidopsis thaliana (enzyme)
chain: MASTGEPDRKRRHFSSISPSEAAAAVKKQPFFWPSSEDKLDTAVLQFQNLKLSQKLEAQQVECSILEDKLSQIKEKQLPYNSSLKTVHKSWEKLTASVESCSVRVSDSSSGAHRFVNKEDGSSPAVKNDFINRLLETGATESSSSNICSNQMEENGVNTSSQMTQTLYNLVAATEDLRCLKDELYPTVLRTNLGKDLCGQLALSELESEIKSFRGDLDDVLVKFKSLSRELQSHRDADAKVRVDLKRIRGELEDEVVELQQCNGDLSALRAERDATAGAFFPVLSLGNKLATSDRERDKQRDLQDMETVLKELTVLASGRLQQLKNLHEERTKMLGKMSNLQNKSKSVRCISSSQACLSLKDQLEKSKEAVFQYMALLEKLQVEKDSIVWKEREINIKNELGDVSRKTSAVTDSRMASLDSEIQKQLDEKMRIKTRLGNISRERGRKEIFADMKALISSFPEEMSSMRSQLNNYKETAGGIHSLRADVQSLSGVLCRKTKEYEALQLRSADYASQLGDLNATVCDLKNSHEELKLFLDMYKRESTDARDIAEAKEQEYRAWAHVQSLKSSLDEQNLELRVKAANEAEAVSQQMLAAAEAEIADLRQKMDDCKRDVAKHSDILKSKHEEHGTYLSEIQTIGSAYEDIVPQNQRLLLQVTERDDYNIKLFLEGITSRQMQDTLLIDKYIMDKDIQQGSAYASFLSKKSSRIEDQLRFCTDQFQKLAEDKYQKSVSLENLQKKRADIGNGLEQARSRLEESHSKVEQSRLDYGALELELEIERFNRRRIEEEMEIAKKKVSRLRSLIEGSSAIQKLRQELSEFKEILKCKACNDRPKEVVITKCYHLFCNPCVQKLTGTRQKKCPTCSASFGPNDIKPIYI
notes: Full length HUB1; In the TAP experiments N-terminally fused to the TAP tag or the GS-TAP tag; in yeast two-hybrid fused to AD (pDEST22) or BD (pDEST32); all these constructs are written under this one entry; also called HUB1fl; full length HUB1

Assays:
[1] = molecular target: UBC2, At2g02760 (Arabidopsis thaliana) (UniProt P42745); test: GS-TAP purification + MALDI-TOF-TOF MS, bait UBC2 (third block); expectance is the MS identification score
[2] = molecular target: HUB1 (Histone Monoubiquitination 1), At2g44950, Arabidopsis thaliana (Arabidopsis thaliana) (UniProt Q8RXD6); test: GS-TAP purification + MALDI-TOF-TOF MS, bait HUB1 (b); expectance is the MS identification score
[3] = molecular target: T1, HUB2, At1g55250, Arabidopsis thaliana (Arabidopsis thaliana, UniProt Q9C895 1-900); test: GS-TAP purification + MALDI-TOF-TOF MS, bait HUB2 (b); expectance is the MS identification score
T1 construct: As prey the endogenous protein of Arabidopsis cell culture; as bait N-terminal GS-TAP fusion; in yeast two-hybrid an AD fusion; also called AAG51572.1
T1 sequence: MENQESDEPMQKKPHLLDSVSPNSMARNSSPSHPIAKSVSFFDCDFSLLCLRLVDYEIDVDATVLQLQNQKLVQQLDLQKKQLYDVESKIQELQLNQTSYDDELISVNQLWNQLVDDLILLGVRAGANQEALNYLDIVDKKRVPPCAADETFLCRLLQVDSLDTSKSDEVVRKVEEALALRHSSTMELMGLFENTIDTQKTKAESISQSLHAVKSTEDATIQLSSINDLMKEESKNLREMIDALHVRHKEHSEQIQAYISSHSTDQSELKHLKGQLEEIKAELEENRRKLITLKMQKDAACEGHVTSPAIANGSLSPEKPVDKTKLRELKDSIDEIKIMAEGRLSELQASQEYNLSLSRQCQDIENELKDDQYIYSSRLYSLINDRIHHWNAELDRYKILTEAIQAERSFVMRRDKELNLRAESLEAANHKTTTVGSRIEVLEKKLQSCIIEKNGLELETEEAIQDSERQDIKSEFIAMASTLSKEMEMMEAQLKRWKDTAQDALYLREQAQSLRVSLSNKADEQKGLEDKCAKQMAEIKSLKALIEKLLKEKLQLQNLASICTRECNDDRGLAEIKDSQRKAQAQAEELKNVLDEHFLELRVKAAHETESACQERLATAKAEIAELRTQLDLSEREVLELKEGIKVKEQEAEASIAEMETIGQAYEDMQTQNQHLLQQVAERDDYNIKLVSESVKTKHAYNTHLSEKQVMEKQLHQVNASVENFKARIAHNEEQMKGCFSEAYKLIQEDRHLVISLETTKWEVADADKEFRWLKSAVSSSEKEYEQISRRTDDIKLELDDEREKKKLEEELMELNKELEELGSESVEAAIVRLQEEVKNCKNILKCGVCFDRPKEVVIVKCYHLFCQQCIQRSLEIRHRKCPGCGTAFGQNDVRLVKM

[4] = molecular target: HUB1 (Histone Monoubiquitination 1), At2g44950, Arabidopsis thaliana (Arabidopsis thaliana) (UniProt Q8RXD6); test: GS-TAP purification + MALDI-TOF-TOF MS, bait HUB1 (b′); expectance is the MS identification score
[5] = molecular target: Spen like protein, At1g27750 (Arabidopsis thaliana); test: GS-TAP purification + MALDI-TOF-TOF MS, bait SL (a); expectance is the MS identification score
[6] = molecular target: HUB1 (Histone Monoubiquitination 1), At2g44950, Arabidopsis thaliana (Arabidopsis thaliana) (UniProt Q8RXD6); test: GS-TAP purification + MALDI-TOF-TOF MS, bait HUB1 (a′); expectance is the MS identification score
[7] = molecular target: Spen like protein, At1g27750 (Arabidopsis thaliana); test: GS-TAP purification + MALDI-TOF-TOF MS, bait SL (b); expectance is the MS identification score
[8] = molecular target: T1, HUB2, At1g55250, Arabidopsis thaliana; test: GS-TAP purification + MALDI-TOF-TOF MS, bait HUB2 (a); expectance is the MS identification score
[9] = molecular target: SEUSS, At1g43850 (Arabidopsis thaliana) (UniProt Q8W234); test: GS-TAP purification + MALDI-TOF-TOF MS, bait SEUSS (b); expectance is the MS identification score
[10] = molecular target: SEUSS, At1g43850 (Arabidopsis thaliana) (UniProt Q8W234); test: GS-TAP purification + MALDI-TOF-TOF MS, bait SEUSS (a); expectance is the MS identification score
[11] = molecular target: T1, HUB2, At1g55250, Arabidopsis thaliana; test: yeast two-hybrid
[12] = molecular target: B2; test: yeast two-hybrid
[13] = molecular target: the molecule itself; test: TAP with N-terminally TAP-tagged HUB1 from Arabidopsis cell culture, mass spectrometry; column Confirmed
Experimental: Because the RING proteins have their functionally important domain at the C-terminus, an N-terminal fusion was prepared instead of the traditional C-terminal fusion by cloning both full length and the point mutant form of HUB1 (HUB1pm, HUB1fl). The Arabidopsis cell cultures were transformed with the two constructs and cultivated on 10 litre scale, harvested and purified by TAP (Van Leene et al., Mol. Cell. Proteomics 6, 1226-38, 2007). The protein extracts were separated on 1-D SDS-PAGE gels and isolated from gel for protein identification by mass spectrometry (Laukens et al., Proteomics. 4, 720-7, 2004, Van Leene et al., 2007). Two cut offs were used resulting in “confirmed” and “to be confirmed” candidate interactor lists (Table I).
In the data set of confirmed interactors TAP HUB1 and HUB2 were present, […] the dimer formation between the homologues. In addition, the acetyltransferase GCN5, RNA binding proteins and a KH domain protein were identified as HUB1 interacting proteins. Most of these proteins are known to be localized in nucleus or nucleoli. GFP constructs of HUB1 have also been localized to nucleus (Liu et al., 2007). When HUB1pm was used for TAP purification no HUB2 could be identified as an interacting protein.

Chain of SEUSS, At1g43850 (Arabidopsis thaliana) (Q8W234 whole entry): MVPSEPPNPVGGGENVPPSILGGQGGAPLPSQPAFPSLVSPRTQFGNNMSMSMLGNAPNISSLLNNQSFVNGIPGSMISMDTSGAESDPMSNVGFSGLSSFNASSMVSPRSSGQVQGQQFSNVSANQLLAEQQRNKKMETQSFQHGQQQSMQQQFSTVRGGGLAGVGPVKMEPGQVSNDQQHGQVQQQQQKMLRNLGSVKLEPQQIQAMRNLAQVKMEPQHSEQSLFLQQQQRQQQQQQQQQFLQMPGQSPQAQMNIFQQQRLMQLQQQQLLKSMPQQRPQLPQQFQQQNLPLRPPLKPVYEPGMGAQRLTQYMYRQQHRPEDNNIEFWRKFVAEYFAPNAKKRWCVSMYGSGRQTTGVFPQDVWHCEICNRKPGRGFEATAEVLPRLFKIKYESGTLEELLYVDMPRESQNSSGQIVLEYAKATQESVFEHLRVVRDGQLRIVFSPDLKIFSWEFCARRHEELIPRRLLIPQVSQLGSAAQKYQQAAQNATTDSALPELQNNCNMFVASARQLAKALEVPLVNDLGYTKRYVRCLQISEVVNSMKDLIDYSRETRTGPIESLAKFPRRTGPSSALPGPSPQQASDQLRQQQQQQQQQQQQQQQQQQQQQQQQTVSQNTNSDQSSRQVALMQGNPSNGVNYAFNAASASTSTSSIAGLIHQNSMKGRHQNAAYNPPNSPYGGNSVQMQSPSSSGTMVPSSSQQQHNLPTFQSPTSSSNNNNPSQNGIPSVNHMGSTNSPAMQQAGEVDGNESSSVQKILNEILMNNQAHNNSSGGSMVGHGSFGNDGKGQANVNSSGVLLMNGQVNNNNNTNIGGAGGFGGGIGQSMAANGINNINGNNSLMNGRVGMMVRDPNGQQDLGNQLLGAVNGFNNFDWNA

In the case of “AtUBA1, AT2G30110 (from UniProt P93028 1-1080) (enzyme)”, the Expectance [1] is reported as 0.00082.

Work on “AtUBA2, AT5G06460 (from UniProt P92974 1-1077) (enzyme)” yielded an Expectance [1] of 0.00026.

Molecule KH domain protein, At1g51580 has an Expectance [2] of 1.6e-08, an Expectance [3] of 1.6e-09 and an Expectance [4] of 3.3e-09. The Expectance [5] was 0.00054, the Expectance [6] was 2.1e-09 and the Expectance [7] was 2.6e-12. It also gave an Expectance [8] of 1.3e-08.

“LUH, At2G32700 (from UniProt O48847 1-787)” showed an Expectance [9] of 2.1e-82 and an Expectance [10] of 3.3e-99.

In the case of Spen like protein, At1g27750, the Expectance [3] is reported as 1e-24, the Expectance [4] is reported as 0.024 and the Expectance [6] is reported as 6.5e-16. For the same molecule, the Expectance [8] was 0.00097.

B1: UBC3 (E2 conjugating enzyme, Arabidopsis thaliana) (enzyme, UniProt P42746 1-150, looked up)
chain: MTTPAKKRLMWDFKRLQKDPPVGISGAPQDNNIMHWNALIFGPEDTPWDGGTFKLTLHFTEDYPNKPPIVRFVSRMFHPNIYADGSICLDILQNQWSPIYDVAAVLTSIQSLLCDPNPDSPANAEAARLFSENKREYNRKVIEIVEQSYV
notes: Yeast two-hybrid fusion
B1: no binding [11]; no binding [12].

B2 was tested, and the “monoubiquitination of histone H2B in the in vitro ubiquitination assay (protein gel blot)” value (histone H2B) was “shift of H2B by 10 kDa” and the binding result [13] was “binds”.

B3: UBC1 (E2 conjugating enzyme, Arabidopsis thaliana) (enzyme, UniProt P25865 1-152, looked up)
chain: MSTPARKRLMRDFKRLQQDPPAGISGAPQDNNIMLWNAVIFGPDDTPWDGGTFKLSLQFSEDYPNKPPTVRFVSRMFHPNIYADGSICLDILQNQWSPIYDVAAILTSIQSLLCDPNPNSPANSEAARMYSESKREYNRRVRDVVEQSWTAD
notes: Yeast two-hybrid fusion
B3: no binding [11]; no binding [12].

B4: UBC2, At2g02760 (enzyme, Arabidopsis thaliana, UniProt P42745 1-152, looked up)
chain: MSTPARKRLMRDFKRLQQDPPAGISGAPQDNNIMLWNAVIFGPDDTPWDGGTFKLSLQFSEDYPNKPPTVRFVSRMFHPNIYADGSICLDILQNQWSPIYDVAAILTSIQSLLCDPNPNSPANSEAARMFSESKREYNRRVREVVEQSWTAD
notes: As bait N-terminal GS-TAP fusion; fusion protein in yeast two-hybrid; also called E2 conjugating enzyme UBC2
B4: no binding [11]; no binding [12].
